# Measurements taken from patent US6916470.
# Target: human mpl (myeloproliferative leukemia receptor, TPO receptor) expressed on stably transfected BaF3 cells (human) (UniProt P40238)
# Assay: cell-based or functional assay
substance,measurement,value
"human thrombopoietin (TPO), expressed in COS cells from cDNA cloned from human fetal liver; used as TPO-containing COS supernatant (from UniProt P40225 22-353) (ligand)",proliferation of mpl-expressing BaF3 cells (activity of the supernatant),300000 U/ml
